Target: FluA-20 mAb
Test: BLI

HA220-2, sequence (Q9NZ52 16-146): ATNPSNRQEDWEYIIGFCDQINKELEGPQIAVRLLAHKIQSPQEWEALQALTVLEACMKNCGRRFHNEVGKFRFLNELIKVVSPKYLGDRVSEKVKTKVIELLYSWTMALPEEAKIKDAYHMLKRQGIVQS
FluA-20 mAb, sequence (heavy, as listed by the source, chain 1 of 2): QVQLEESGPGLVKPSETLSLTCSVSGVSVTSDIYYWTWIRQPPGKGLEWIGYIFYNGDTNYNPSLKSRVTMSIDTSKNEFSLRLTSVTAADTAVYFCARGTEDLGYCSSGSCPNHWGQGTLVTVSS
FluA-20 mAb, sequence (light, as listed by the source, chain 2 of 2): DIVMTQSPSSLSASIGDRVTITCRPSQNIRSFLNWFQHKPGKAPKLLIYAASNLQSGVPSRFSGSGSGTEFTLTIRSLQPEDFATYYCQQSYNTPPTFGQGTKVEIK

## HA220-2 (from UniProt Q9NZ52 16-146)
  Kd: 978 nM

Reference: publication doi:10.1101/2025.11.04.686334
